# Data taken from article PMC7398557 (Nature, 2020).
# B1: human acyl-CoA:diacylglycerol acyltransferase 1 (DGAT1) (enzyme)
# chain: MGDRGSSRRRRTGSRPSSHGGGGPAAAEEEVRDAAAGPDVGAAGDAPAPAPNKDGDAGVGSGHWELRCHRLQDSLFSSDSGFSNYRGILNWCVVMLILSNARLFLENLIKYGILVDPIQVVSLFLKDPYSWPAPCLVIAANVFAVAAFQVEKRLAVGALTEQAGLLLHVANLATILCFPAAVVLLVESITPVGSLLALMAHTILFLKLFSYRDVNSWCRRARAKAASAGKKASSAAAPHTVSYPDNLTYRDLYYFLFAPTLCYELNFPRSPRIRKRFLLRRILEMLFFTQLQVGLIQQWMVPTIQNSMKPFKDMDYSRIIERLLKLAVPNHLIWLIFFYWLFHSCLNAVAELMQFGDREFYRDWWNSESVTYFWQNWNIPVHKWCIRHFYKPMLRRGSSKWMARTGVFLASAFFHEYLVSVPLRMFRLWAFTGMMAQIPLAWFVGRFFQGNYGNAAVWLSLIIGQPIAVLMYVHDYYVLNYEAPAAEA
# Molecular target: the molecule itself
# Test: cryo-EM structure
protein,measurement,value
B1,stoichiometry N,2
